The chains are these.
T1: recombinant human biglycan core polypeptide (no side chains), His-tagged, vaccinia system (human, UniProt P21810 38-368)
T1 construct: GAG attachment sites present but not substituted; also called BGN; core biglycan; not shown: N-terminal cassette His6-[Glu-Ser]-factor Xa site-[Leu-Glu]
T1 sequence: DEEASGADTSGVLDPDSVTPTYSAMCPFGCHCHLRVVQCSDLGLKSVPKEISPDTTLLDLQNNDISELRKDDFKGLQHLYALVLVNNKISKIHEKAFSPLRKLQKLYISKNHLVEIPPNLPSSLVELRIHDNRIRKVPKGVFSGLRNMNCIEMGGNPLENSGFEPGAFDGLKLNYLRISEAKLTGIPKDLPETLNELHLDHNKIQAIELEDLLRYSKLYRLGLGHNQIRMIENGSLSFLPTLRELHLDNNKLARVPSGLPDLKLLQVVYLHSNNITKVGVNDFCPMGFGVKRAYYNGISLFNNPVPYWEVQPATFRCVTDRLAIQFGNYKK

T2: α-sarcoglycan, 35S-methionine-labelled, in vitro translated (human, UniProt Q16586 1-387, limits assumed)
T2 construct: also called alpha-sarcoglycan
T2 sequence (looked up): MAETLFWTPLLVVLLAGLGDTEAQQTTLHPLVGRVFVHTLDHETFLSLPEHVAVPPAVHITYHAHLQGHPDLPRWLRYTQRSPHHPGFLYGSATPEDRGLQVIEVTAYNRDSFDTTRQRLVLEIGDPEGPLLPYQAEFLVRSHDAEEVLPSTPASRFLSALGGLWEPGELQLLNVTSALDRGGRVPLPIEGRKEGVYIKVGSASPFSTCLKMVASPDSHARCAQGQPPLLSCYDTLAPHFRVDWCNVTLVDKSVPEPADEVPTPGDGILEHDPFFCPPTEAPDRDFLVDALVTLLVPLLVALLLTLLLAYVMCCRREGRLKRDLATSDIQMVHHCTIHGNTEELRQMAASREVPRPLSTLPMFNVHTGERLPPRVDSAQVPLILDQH

B1: β-sarcoglycan, 35S-methionine-labelled, in vitro translated (other, human, UniProt Q16585 1-318, looked up)
chain: MAAAAAAAAEQQSSNGPVKKSMREKAVERRSVNKEHNSNFKAGYIPIDEDRLHKTGLRGRKGNLAICVIILLFILAVINLIITLVIWAVIRIGPNGCDSMEFHESGLLRFKQVSDMGVIHPLYKSTVGGRRNENLVITGNNQPIVFQQGTTKLSVENNKTSITSDIGMQFFDPRTQNILFSTDYETHEFHLPSGVKSLNVQKASTERITSNATSDLNIKVDGRAIVRGNEGVFIMGKTIEFHMGGNMELKAENSIILNGSVMVSTTRLPSSSSGDQLGSGDWVRYKLCMCADGTLFKVQVTSQNMGCQISDNPCGNTH
notes: also called beta-sarcoglycan
B2: recombinant decorin core polypeptide (no side chains), vaccinia system (other, UniProt P07585 31-359, looked up, not shown: small tags and cut ends)
chain: DEASGIGPEVPDDRDFEPSLGPVCPFRCQCHLRVVQCSDLGLDKVPKDLPPDTTLLDLQNNKITEIKDGDFKNLKNLHALILVNNKISKVSPGAFTPLVKLERLYLSKNQLKELPEKMPKTLQELRAHENEITKVRKVTFNGLNQMIVIELGTNPLKSSGIENGAFQGMKKLSYIRIADTNITSIPQGLPPSLTELHLDGNKISRVDAASLKGLNNLAKLGLSFNSISAVDNGSLANTPHLRELHLDNNKLTRVPGGLAEHKYIQVVYLHNNNISVVGSSDFCPPGHNTKKASYSGVSLFSNPVQYWEIQPSTFRCVYVRSAIQLGNYK
B3: recombinant decorin proteoglycan (core and side chains), vaccinia system (other, UniProt P07585 31-359, looked up, not shown: small tags and cut ends)
chain: B2 chain
modifications: glycosaminoglycan side chain
notes: also called DEC-PG; DECPG
B4: γ-sarcoglycan, 35S-methionine-labelled, in vitro translated (other, human, UniProt Q13326 1-291, looked up)
chain: MVREQYTTATEGICIERPENQYVYKIGIYGWRKRCLYLFVLLLLIILVVNLALTIWILKVMWFSPAGMGHLCVTKDGLRLEGESEFLFPLYAKEIHSRVDSSLLLQSTQNVTVNARNSEGEVTGRLKVGPKMVEVQNQQFQINSNDGKPLFTVDEKEVVVGTDKLRVTGPEGALFEHSVETPLVRADPFQDLRLESPTRSLSMDAPRGVHIQAHAGKIEALSQMDILFHSSDGMLVLDAETVCLPKLVQGTWGPSGSSQSLYEICVCPDGKLYLSVAGVSTTCQEHNHICL
notes: also called gamma sarcoglycan

For assay [1], the target named is T1, recombinant human biglycan core …. The assay can be described thus: co-immunoprecipitation in solution with anti-biglycan or anti-poly-His, protein G beads.
The target in assay [2] is B2. Briefly: blot overlay.
Assay [3] deals with T2, α-sarcoglycan, 35S-methionine-labelled, …. The assay can be described thus: blot overlay with 35S in vitro translated sarcoglycan.
For assay [4], the target named is B3. The description is as above.
In assay [5] the target is T1, recombinant human biglycan core …. Described as above.
Assay [6] has as its target B2. Described as above.

The results in this text go back to US20050043221A1 (BROWN UNIVERSITY, published 2005).

In the case of B1, the binding result in assay [1] and in assay [2] was “no binding” each time.

Turning to B2, the binding result in assay [3] was “no binding”.

Turning to B3, the binding result in assay [3] is reported as “no binding”.

With B4, the binding result is “no binding” in assay [4], “binds” in assay [5] and “no binding” in assay [6].
